Results published in US20050186659A1 (published 2005).

Target: the molecule itself
Experiment: analytical ultracentrifugation (sedimentation velocity) in buffer with 0.4-0.6 M GuHCl; self-association of the enzyme
Procedure: Analytical ultracentrifugation. Velocity sedimentation experiments were performed using an XL-A analytical ultracentrifuge (Beckman Instruments, Palo Alto, Calif.) with an An60-Ti rotor. 11β-HSD1 in 50 mM Tris-HCl, pH 8.0: 1 mM TCEP and increasing concentrations of GuHCl (0-2.0 M) was centrifuged at 40,000 rpm. Solutions containing the same components except the protein were used as references. Scans were collected every 5 min at 280 nm absorption wavelength and the radial distance of the sedimenting boundary r was determined. The sedimentation coefficient was calculated by the gradient of the plot of ln(r) vs ω²t, where ω was the angular velocity and t was the time.
The association state of 11β-HSD1 was investigated by analytical ultracentrifugation. […] When incubated in buffer containing 0.4 M GuHCl, the guinea pig enzyme appeared to be constituted by two major populations (FIG. 5B). This behavior was even more pronounced at 0.6 M GuHCl (FIG. 5C). A molecular weight of approximately 60 kDa can be derived from the sedimentation coefficient of the larger peak, corresponding to a dimeric 11β-HSD1 population, while the second peak may originate from a smaller portion of tetrameric enzyme.

B1: recombinant guinea pig 11β-hydroxysteroid dehydrogenase type 1 (11β-HSD1), catalytic domain with His6 tag (enzyme)
chain: MGSSHHHHHHSSGLVPRGSHMNEKFRPEMLQGKKVIVTGASKGIGREIAYHLAKMGAHVVVTARSKEALQKVVARCLELGAASAHYIAGSMEDMTFAEEFVAEAGNLMGGLDMLILNHVLYNRLTFFHGEIDNVRKSMEVNFHSFVVLSVAAMPMLMQSQGSIAVVSSVAGKITYPLIAPYSASKFALDGFFSTLRSEFLVNKVNVSITLCILGLIDTETAIKATSGIYLGPASPKEECALEIIKGTALRQDEMYYVGSRWVPYLLGNPGRKIMEFLSAAEYNWDNVLSNEKLYGRWA
notes: also called guinea pig 11β-HSD1; guinea pig enzyme
- binding result: binds
